This is an account of results in US20220024981A1 (Novartis, published 2022).

Bridge positions count the residues as written; N and C are the ends. Square brackets hold non-standard residues; d marks the D form. Bip = N[C@@H](Cc1ccc(-c2ccccc2)cc1)C(=O)O; Phe(4-Cl) = N[C@@H](Cc1ccc(Cl)cc1)C(=O)O; NMeA = CN[C@@H](C)C(=O)O

For orientation: IC50 means the concentration that gives 50% inhibition.

This test has as its target T1, Human PCSK9 Alexa Fluor 647 (human, UniProt Q8NBP7 31-692, limits assumed, Alexa Fluor 647 label (site not stated)).
T1 construct: Labelled tracer of the TR-FRET assay, 16 nM stock; also called proprotein convertase subtilisin/kexin type 9
Kind of test: TR-FRET competition: PCSK9-Alexa Fluor 647 vs LDLR ECD-Eu kryptate. As for the experimental part:
A Proxi plate-low volume assay plate was used for the assay. […] Following a 30 minute incubation, 5 uL of 4 nM Human LDLR extracellular domain-Europium Kryptate was added and the mixture was incubated for an additional 2 hours.
The TR-FRET signal was measured on an EnVision or PheraStar instrument with a 60 μs delay, 330 nm excitation and 665 nm emission (FRET), and 330 nm excitation and 615 nm (Europium). The FRET ratio (FRET/Europium) was used for calculations.
On the technique in general: Time-resolved FRET reads energy transfer from a long-lived donor to a nearby acceptor.

T1 sequence (Q8NBP7 31-692 limits assumed): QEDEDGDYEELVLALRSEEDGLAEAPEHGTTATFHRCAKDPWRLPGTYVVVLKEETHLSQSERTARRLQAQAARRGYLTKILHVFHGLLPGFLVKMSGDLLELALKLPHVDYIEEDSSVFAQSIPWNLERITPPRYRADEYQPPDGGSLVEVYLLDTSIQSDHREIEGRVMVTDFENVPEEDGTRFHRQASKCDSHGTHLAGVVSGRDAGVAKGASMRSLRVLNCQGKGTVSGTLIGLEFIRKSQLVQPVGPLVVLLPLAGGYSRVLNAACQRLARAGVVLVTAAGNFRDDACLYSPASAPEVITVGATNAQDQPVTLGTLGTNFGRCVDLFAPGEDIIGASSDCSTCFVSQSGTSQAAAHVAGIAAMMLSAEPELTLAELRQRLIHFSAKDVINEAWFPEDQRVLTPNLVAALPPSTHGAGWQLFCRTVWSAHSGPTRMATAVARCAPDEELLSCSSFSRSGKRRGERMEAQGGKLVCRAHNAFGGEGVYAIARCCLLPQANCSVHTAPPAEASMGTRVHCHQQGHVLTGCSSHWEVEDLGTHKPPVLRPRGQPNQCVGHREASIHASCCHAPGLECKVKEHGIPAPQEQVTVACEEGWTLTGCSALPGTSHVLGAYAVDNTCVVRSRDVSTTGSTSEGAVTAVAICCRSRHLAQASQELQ

For the molecule {CH2CO}-FVPTT[Bip][NMeA][Bip][NMeA]EAPC-NHEt (thioether N-13, also called 3-3; Ex. No. 3-3) [Ac*-F-V-P-T-T-B-(N-Me)A-B-(N-Me)A-E-A-P-C*-NHEt], the IC50 turned out to be 2.2 nM.

B1: Ac*-F-V-P-T-T-B-(N-Me)A-B-(N-Me)A-A-A-P-C*-NHEt (peptide)
peptide: {CH2CO}-FVPTT[Bip][NMeA][Bip][NMeA]AAPC-NHEt
modifications: thioether N-13
SMILES: CCNC(=O)[C@@H]1CSCC(=O)N[C@@H](Cc2ccccc2)C(=O)N[C@@H](C(C)C)C(=O)N2CCC[C@H]2C(=O)N[C@@H]([C@@H](C)O)C(=O)N[C@@H]([C@@H](C)O)C(=O)N[C@@H](Cc2ccc(-c3ccccc3)cc2)C(=O)N(C)[C@@H](C)C(=O)N[C@@H](Cc2ccc(-c3ccccc3)cc2)C(=O)N(C)[C@@H](C)C(=O)N[C@@H](C)C(=O)N[C@@H](C)C(=O)N2CCC[C@H]2C(=O)N1
notes: also called 3-4; Ex. No. 3-4
As for B1, the IC50 came to 1.4 nM and the Maximum % inhibition was found to be 49%.

B2: Ac*-F-V-A-T-T-F-(N-Me)A-(p-Cl)F-(N-Me)A-N-A-P-C*-NH2 (peptide)
peptide: {CH2CO}-FVATTF[NMeA][Phe(4-Cl)][NMeA]NAPC-NH2
modifications: thioether N-13
SMILES: CC(C)[C@@H]1NC(=O)[C@H](Cc2ccccc2)NC(=O)CSC[C@@H](C(N)=O)NC(=O)[C@@H]2CCCN2C(=O)[C@H](C)NC(=O)[C@H](CC(N)=O)NC(=O)[C@H](C)N(C)C(=O)[C@H](Cc2ccc(Cl)cc2)NC(=O)[C@H](C)N(C)C(=O)[C@H](Cc2ccccc2)NC(=O)[C@H]([C@@H](C)O)NC(=O)[C@H]([C@@H](C)O)NC(=O)[C@H](C)NC1=O
notes: also called 2-5; Ex. No. 2-5
In turn, B2 yielded an IC50 of 1.1 nM and a Maximum % inhibition of 46%.
